In paper PMC7646482:

Assays:
Assay in all cases: SPR
[1] = target: Other beneficial substitutions in Ab77 and Ab31
[2] = target: Ab77 with a T28I mutation (human)
Ab62-D100dG (human) = target: Ab62-D100dG (human)
Ab62-S74P (human) = target: Ab62-S74P (human)

fold improvement of affinity over the parent antibody [1]: < 2 fold
fold improvement of affinity over the parent Ab77 [2]: 3 fold
fold improvement of affinity over the parent Ab62 (Ab62-D100dG (human)): 3 fold
fold improvement of affinity over the parent Ab62 (Ab62-S74P (human)): 3 fold
B1: Recombinant dimeric HARS (aa1-506) (enzyme)
chain: MAERAALEELVKLQGERVRGLKQQKASAELIEEEVAKLLKLKAQLGPDESKQKFVLKTPKGTRDYSPRQMAVREKVFDVIIRCFKRHGAEVIDTPVFELKETLMGKYGEDSKLIYDLKDQGGELLSLRYDLTVPFARYLAMNKLTNIKRYHIAKVYRRDNPAMTRGRYREFYQCDFDIAGNFDPMIPDAECLKIMCEILSSLQIGDFLVKVNDRRILDGMFAICGVSDSKFRTICSSVDKLDKVSWEEVKNEMVGEKGLAPEVADRIGDYVQQHGGVSLVEQLLQDPKLSQNKQALEGLGDLKLLFEYLTLFGIDDKISFDLSLARGLDYYTGVIYEAVLLQTPAQAGEEPLGVGSVAAGGRYDGLVGMFDPKGRKVPCVGLSIGVERIFSIVEQRLEALEEKIRTTETQVLVASAQKKLLEERLKLVSELWDAGIKAELLYKKNPKLLNQLQYCEEAGIPLVAIIGEQELKDGVIKLRSVTSREEVDVRREDLVEEIKRRTGQPL
